Data taken from publication PMC3646564 (Cell, 2013).

Columns and labels:
[1] = target: D. radiodurans PNPase lacking the S1 domain (D. radiodurans) (UniProt Q9RSR1); assay: native gel or EMSA + other: negative stain electron microscopy
[2] = target: D. radiodurans PNPase lacking the KH domain (D. radiodurans) (UniProt Q9RSR1); assay: as above
[3] = target: the molecule itself; assay: glycerol gradient sedimentation

Which stoichiometry N [1] does the source give for “D. radiodurans PNPase lacking the S1 domain (from UniProt Q9RSR1 1-779) (enzyme)” here?
Its stoichiometry N is 3.

For “D. radiodurans PNPase lacking the KH domain (from UniProt Q9RSR1 1-779) (enzyme)”, which stoichiometry N [2] is on record?
Its stoichiometry N is 3.

B1: Salmonella Typhimurium PNPase fused to 3 copies of FLAG (FLAG3-pnp) (enzyme, S. Typhimurium, UniProt Q8ZLT3 1-711, looked up)
chain: MLNPIVRKFQYGQHTVTLETGMMARQATAAVMVSMDDTAVFVTVVGQKKAKPGQDFFPLTVNYQERTYAAGRIPGSFFRREGRPSEGETLIARLIDRPVRPLFPEGFVNEVQVIATVVSVNPQVNPDIVAMIGASAALSLSGIPFNGPIGAARVGYINDQYVLNPTQDELKESKLDLVVAGTEAAVLMVESEAELLSEDTMLGAVVFGHEQQQVVIQAINDLVKEAGKPRWDWQPEAVNDALNARVAALAESRLSDAYRITDKQERYAQVDVIKSETIEQLIAEDETLDANELGEILHAIEKNVVRSRVLAGEPRIDGREKDMIRGLDVRTGVLPRTHGSALFTRGETQALVTATLGTARDAQVLDELMGERTDSFLFHYNFPPYSVGETGMVGSPKRREIGHGRLAKRGVLAVMPDMDKFPYTVRVVSEITESNGSSSMASVCGASLALMDAGVPIKAAVAGIAMGLVKEGDNYVVLSDILGDEDHLGDMDFKVAGSRDGISALQMDIKIEGITKEIMQVALNQAKGARLHILGVMEQAINAPRGDISEFAPRIHTIKISTDKIKDVIGKGGSVIRALTEETGTTIEIEDDGTVKIAATDGEKAKYAIRRIEEITAEIEVGRIYNGKVTRIVDFGAFVAIGGGKEGLVHISQIADKRVEKVTDYLQMGQEVPVKVLEVDRQGRVRLSIKEATEQSQPAAAPEAPASEQAE
How did the “stoichiometry N” value [3] turn out when B1 was run?
Its value is 3.
